Assay results reported in article PMC6224377 (2018).
Residue numbers refer to the chain shown, from its start.

B1: GK-1E5 (antibody, V domains shown)
VH: EVQLVESGGGVVQPGRSLRLSCAASGFTFRSYGMHWVRQAPGKGLEWVAIIWYDGSKKYYTDSVQGRFTISRDNSKNTLYLQMNSLRAEDTAVYYCARPGIAMTGLDYWGQGTLVTVSS
VL: DIQLTQSPSTLSASVGDRVTITCRASQSISSWLAWYQQKPGKAPKLLIYKASSLESGVPSRFSGSGSGTEFTLTISSLQPDDFATYYCQQYNNYWTFGQGTKVEIK
B2: GK-5A1 (antibody, V domains shown)
VH: QVQLVESGGGVVQPGRSLRLSCAASGFTFSSYGMYWVRQAPGKGLEWVAVIWNDGSNKYYADSVKGRFTISRDNSKNTLYLQMNSLRAEDTAVYYCAREGSGWYDYYYGMDVWGQGTTVTVSS
VL: B1 VL with D1E, Q3V, N93S, E104D
B3: GK-5E1 (antibody, V domains shown)
VH: QVTLKESGGDVVQPGRSLRLSCAASGFTFRTYGMHWVRQAPGKGPEWVALIWYDGSKKYYADSVKGRFTISRDNSKNTLYLQMNSLRAEDTAVYYCVRVRFGELYFQHWGQGTLVTVSS
VL: not shown

biological target: hROR2-ECD-Twin-Strep (soluble human ROR2 extracellular domain fused to a Twin-Strep-tag) (human, UniProt Q01974 34-403); assay: SPR
Sequence (Q01974 34-403): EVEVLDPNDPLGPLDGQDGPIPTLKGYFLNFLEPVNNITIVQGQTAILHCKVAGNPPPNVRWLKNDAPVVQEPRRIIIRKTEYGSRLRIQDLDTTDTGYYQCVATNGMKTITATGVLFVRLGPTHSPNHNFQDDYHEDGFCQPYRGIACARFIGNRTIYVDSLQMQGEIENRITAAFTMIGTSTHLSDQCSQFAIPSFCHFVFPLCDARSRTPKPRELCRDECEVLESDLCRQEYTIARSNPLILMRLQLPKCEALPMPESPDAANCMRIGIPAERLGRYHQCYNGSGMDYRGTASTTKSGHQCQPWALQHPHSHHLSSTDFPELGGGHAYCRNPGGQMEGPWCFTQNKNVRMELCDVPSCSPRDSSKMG

| Kd | Binder |
| --- | --- |
| 80.7 nM | B1 |
| 61.3 nM | B2 |
| 2.5 nM | B3 |
